Data: US20240010749A1 (Merck KGaA, published 2024)

What was measured:
[1] = target: T1, human CEACAM5 expressed on cancer cell lines (MKN-45, NCI-H441, SNU-16, SK-CO-1, LS174T) (human, UniProt P06731 35-685); test: cell-based or functional assay
T1 sequence: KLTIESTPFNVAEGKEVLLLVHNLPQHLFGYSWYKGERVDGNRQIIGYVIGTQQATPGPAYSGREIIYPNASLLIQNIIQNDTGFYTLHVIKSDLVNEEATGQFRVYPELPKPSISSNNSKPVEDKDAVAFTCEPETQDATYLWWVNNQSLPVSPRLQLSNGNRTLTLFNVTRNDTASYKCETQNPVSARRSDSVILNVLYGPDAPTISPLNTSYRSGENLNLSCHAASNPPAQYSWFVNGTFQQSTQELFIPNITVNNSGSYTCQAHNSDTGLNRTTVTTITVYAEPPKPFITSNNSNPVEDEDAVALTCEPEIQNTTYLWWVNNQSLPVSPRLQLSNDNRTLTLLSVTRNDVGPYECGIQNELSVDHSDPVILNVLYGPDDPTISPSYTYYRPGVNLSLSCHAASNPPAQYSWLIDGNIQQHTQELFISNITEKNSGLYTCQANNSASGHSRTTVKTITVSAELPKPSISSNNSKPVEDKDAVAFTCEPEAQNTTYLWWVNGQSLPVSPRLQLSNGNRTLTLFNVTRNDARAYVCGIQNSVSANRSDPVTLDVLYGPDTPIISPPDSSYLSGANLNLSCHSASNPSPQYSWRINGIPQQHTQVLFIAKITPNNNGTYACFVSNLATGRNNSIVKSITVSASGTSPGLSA

[2] = target: T1, human CEACAM5 expressed on cancer cell …; test: cell-based or functional assay; remark: listed apart in the source
[3] = target: T1, human CEACAM5 expressed on cancer cell …; test: cell binding on MKN45 cells, average of several experiments

| EC50 [3] | Binder | IC50 [M], cell viability (CellTiter-Glo, 6 days), LS174T [1] | IC50 [M], cell viability (CellTiter-Glo, 6 days), MKN-45 [1] | IC50 [M], cell viability (CellTiter-Glo, 6 days), SK-CO-1 [1] | IC50 [M], cell viability (CellTiter-Glo, 6 days), SNU-16 [1] | fold higher potency than ADC SAR DM4 against SK-CO-1 cancer cells (cell viability) [2] |
| --- | --- | --- | --- | --- | --- | --- |
| 10.4 nM | mAb1 (antibody, human IgG1, kappa, Labelled with pHrodo in the internalization assay; also called so8G4) heavy: EVQLQESGPGLVKPSQTLSLTCTVSDGSVSRGGYYLTWIRQHPGKGLEWIGYIYYSGSTYFNPSLRSRVTMSVDTSKNQFSLKLSSVTAADTAVYYCARGIAVAPFDYWGQGTLVTVSSASTKGPSVFPLAPSSKSTSGGTAALGCLVKDYFPEPVTVSWNSGALTSGVHTFPAVLQSSGLYSLSSVVTVPSSSLGTQTYICNVNHKPSNTKVDKRVEPKSCDKTHTCPPCPAPPVAGPSVFLFPPKPKDTLMISRTPEVTCVVVDVSHEDPEVKFNWYVDGVEVHNAKTKPREEQYNSTYRVVSVLTVLHQDWLNGKEYKCKVSNKALPSSIEKTISKAKGQPREPQVYTLPPSREEMTKNQVSLTCLVKGFYPSDIAVEWESNGQPENNYKTTPPVLDSDGSFFLYSKLTVDKSRWQQGNVFSCSVMHEALHNHYTQKSLSLSPG light: not shown |  |  |  |  |  |
| 16 nM | hmn-14 (antibody, human IgG1, kappa, V domains shown, Known comparator antibody, human IgG; also called labetuzumab) VH: EVQLVESGGGVVQPGRSLRLSCSASGFDFTTYWMSWVRQAPGKGLEWIGEIHPDSSTINYAPSLKDRFTISRDNAKNTLFLQMDSLRPEDTGVYFCASLYFGFPWFAYWGQGTPVTVSS VL: DIQLTQSPSSLSASVGDRVTITCKASQDVGTSVAWYQQKPGKAPKLLIYWTSTRHTGVPSRFSGSGSGTDFTFTISSLQPEDIATYYCQQYSLYRSFGQGTKVEIKR |  |  |  |  |  |

Second part, the binder before the results:

| Binder | EC50 [3] | IC50 [M], cell viability (CellTiter-Glo, 6 days), LS174T [1] | IC50 [M], cell viability (CellTiter-Glo, 6 days), MKN-45 [1] | IC50 [M], cell viability (CellTiter-Glo, 6 days), SK-CO-1 [1] | IC50 [M], cell viability (CellTiter-Glo, 6 days), SNU-16 [1] | fold higher potency than ADC SAR DM4 against SK-CO-1 cancer cells (cell viability) [2] |
| --- | --- | --- | --- | --- | --- | --- |
| ADC1 (mAb1-glucuronid-exatecan) (other, exatecan attached through the glucuronide linker of DL1 (maleimide) to cysteines of reduced interchain disulfides; DAR 7.9) heavy: EVQLQESGPGLVKPSQTLSLTCTVSDGSVSRGGYYLTWIRQHPGKGLEWIGYIYYSGSTYFNPSLRSRVTMSVDTSKNQFSLKLSSVTAADTAVYYCARGIAVAPFDYWGQGTLVTVSSASTKGPSVFPLAPSSKSTSGGTAALGCLVKDYFPEPVTVSWNSGALTSGVHTFPAVLQSSGLYSLSSVVTVPSSSLGTQTYICNVNHKPSNTKVDKRVEPKSCDKTHTCPPCPAPPVAGPSVFLFPPKPKDTLMISRTPEVTCVVVDVSHEDPEVKFNWYVDGVEVHNAKTKPREEQYNSTYRVVSVLTVLHQDWLNGKEYKCKVSNKALPSSIEKTISKAKGQPREPQVYTLPPSREEMTKNQVSLTCLVKGFYPSDIAVEWESNGQPENNYKTTPPVLDSDGSFFLYSKLTVDKSRWQQGNVFSCSVMHEALHNHYTQKSLSLSPG light: not shown |  | 3.8e-10 M | 6.2e-10 M | 8.5e-11 M | 3.2e-10 M | 2.9 fold |
| ADC2 (mAb1-AAN-exatecan) (other, exatecan attached through the legumain-cleavable Ala-Ala-Asn linker of DL2 (maleimide) to cysteines of reduced interchain disulfides; DAR 7.6) heavy: EVQLQESGPGLVKPSQTLSLTCTVSDGSVSRGGYYLTWIRQHPGKGLEWIGYIYYSGSTYFNPSLRSRVTMSVDTSKNQFSLKLSSVTAADTAVYYCARGIAVAPFDYWGQGTLVTVSSASTKGPSVFPLAPSSKSTSGGTAALGCLVKDYFPEPVTVSWNSGALTSGVHTFPAVLQSSGLYSLSSVVTVPSSSLGTQTYICNVNHKPSNTKVDKRVEPKSCDKTHTCPPCPAPPVAGPSVFLFPPKPKDTLMISRTPEVTCVVVDVSHEDPEVKFNWYVDGVEVHNAKTKPREEQYNSTYRVVSVLTVLHQDWLNGKEYKCKVSNKALPSSIEKTISKAKGQPREPQVYTLPPSREEMTKNQVSLTCLVKGFYPSDIAVEWESNGQPENNYKTTPPVLDSDGSFFLYSKLTVDKSRWQQGNVFSCSVMHEALHNHYTQKSLSLSPG light: not shown |  | 2.8e-10 M | 4.7e-10 M | 6.9e-11 M | 2.8e-10 M | 2.7 fold |
